Measured values from paper PMC5979958 (Scientific Reports, 2018).
Where “and” joins values, the source holds several entries; their conditions need not be identical. Equal values may be shown once.

Experiments:
[1] = test system: MIF/CXCR4-dependent JVM-3 lymphocyte chemotaxis; test: inhibition of MIF-mediated JVM-3 B cell chemotaxis by RLR-containing peptides; type: cell-based, human; details: 16 nM WT-MIF, pre-incubated 30 min, migration 24 h, 3–12 replicates, 2–3 experiments
Experimental: (§1) Migration assays using the CXCR4-expressing JVM-3 B cell line were performed in a transmigration well as previously described[32] using the following modifications. Briefly, JVM-3 B cells were sub-cultured and transferred to media without FBS. A migration assay was performed using 24-well format Transwell membranes (Sigma-Corning; 5 µm pore size) containing 1 × 10^6 JVM-3 cells in the upper chamber. […] As positive control, 8 nM CXCL12 was used. Wells without chemoattractant served as negative control and were used to normalize migration effects to ‘chemotactic index’ (number of migrated cells in the presence of chemoattractant divided by the number of migrated cells in the absence of the chemoattractant) – as described previously. […] Cells were allowed to migrate for 24 h. After migration, cells in the lower chamber were counted using Countbright absolute counting beads (Invitrogen) using a FACSVerse flow cytometer (BD Biosciences, Heidelberg, Germany).

[2] = test system: JVM-3 B cells (CXCR4-expressing); test: lymphocyte chemotaxis assay, JVM-3 B cells (chemoattractant); type: cell-based, human; details: for chemotactic effect compared with another chemoattractant: WT-MIF compared with CXCL12, RLR mutant compared with WT-MIF
Experimental: JVM-3 cells (ACC-18) are a chronic B cell leukemia cell line and were kindly provided by Prof. M. Hallek, University of Cologne Medical School, Cologne, Germany. JVM-3 were grown in RPMI media with 1% penicillin/streptomycin and 10% fetal bovine serum (Invitrogen-Thermo Fisher Scientific, Karlsruhe, Germany) essentially as described previously. Miscellaneous cell culture reagents also were bought from Invitrogen-Thermo Fisher Scientific and from PAA (Pasching, Austria). LPS content of the purified WT-MIF and RLR mutant proteins was tested by limulus amoebocyte assay (LAL, Lonza, Cologne, Germany) following the manufacturer’s recommendation. All other reagents were obtained from Sigma, Merck, Roth, or Calbiochem, and were of the highest purity degree available.
as §1

[3] = circular dichroism spectroscopy; type: physicochemical; details: for aggregation-tendency: far-UV CD at 1, 2.5, and 5 µM, 10 mM sodium phosphate, pH 7.2, 25 °C
Experimental: CD spectroscopy provides a good estimation of the secondary structural profile of a protein and records relative changes in average secondary structural content, e.g. when a mutated protein is compared to its wildtype counterpart.
Far-UV circular dichroism (CD) spectra were recorded in a Jasco 700 CD spectropolarimeter (Jasco Labor- u. Datentechnik GmbH, Groß-Umstadt, Germany). Scans were recorded at 25 °C between 195 and 250 nm as an average of three scans and smoothed to obtain the final data. Spectra were collected at 1.0 nm intervals with a bandwidth of 1 nm in a buffer containing 10 mM sodium phosphate, pH 7.2. […] CD spectra are presented as a plot of mean residue ellipticities. […] Secondary structure fractions were quantitated by the Dichroweb online software webtool by deconvolutions of CD spectra using ContinLL at DichroWeb and the reference spectra set 7[43],[44].

[4] = test system: human CXCR4 expressed in S. cerevisiae; details: yeast CXCR4 signaling system, in comparison with CXCL12; cited from earlier work
From the text: To address the contribution of the RLR motif to MIF/CXCR4-specific cell signaling responses, we employed a genetically modified strain of Saccharomyces cerevisiae that replaces the yeast ste2 GPCR with human CXCR4 as previously reported. This cell system eliminates complications from mammalian cells that usually express more than one or all MIF cell surface receptors and is based on agonist-mediated activation of CXCR4 leading to a signaling cascade that results in β-galactosidase expression from the Fus1-lacZ reporter plasmid.

[5] = size exclusion chromatography, oligomeric state; type: physicochemical; details: Superdex 75, 20 mM sodium phosphate, pH 7.2
Experimental: The mutant protein was eluted from the anion exchange column via salt gradient and subjected to size exclusion chromatography (SEC) for further purification.
Following Q sepharose, the protein was further purified by size exclusion chromatography (SEC, Superdex 75, GE Healthcare) in 20 mM sodium phosphate buffer, pH 7.2, i.e. buffer conditions compatible with MIF bioactivity.

[6] = target: the molecule itself; test: SEC; Superdex 75 in 20 mM sodium phosphate buffer, pH 7.2, after Q sepharose; peaks at approximately 23 and 38 kDa

YSKLLCGLLAERLRI [MIF(76–90), RLR-spanning MIF peptide]
inhibition of WT-MIF-mediated JVM-3 chemotaxis ([1]; peptide 10 nM and 100 nM): ablated

ERLRISPDRVYINYY [MIF(86–100), RLR-spanning MIF peptide]
inhibition of WT-MIF-mediated JVM-3 chemotaxis ([1]; peptide 10 nM and 100 nM): trend towards inhibition | inhibition of WT-MIF-mediated JVM-3 chemotaxis ([1]; peptide 1 µM): significant and complete blockade

B1: macrophage migration inhibitory factor (protein, UniProt P14174 2-115, looked up)
Macrophage migration …: PMFIVNTNVPRASVPDGFLSELTQQLAQATGKPPQYIAVHVVPDQLMAFGGSSEPCALCSLHSIGKIGGAQNRSYSKLLCGLLAERLRISPDRVYINYYDMNAANVGWNNSTFA
notes: recombinant human MIF
chemotactic effect compared with another chemoattractant [2]: lower than that of CXCL12 | aggregation-tendency [3]: neither protein showed an aggregation-tendency | type of agonism at CXCR4 [4]: partial allosteric agonism

B2: R87A-L88A-R89A-MIF (ligand, human, UniProt P14174 1-115, looked up)
chain: MPMFIVNTNVPRASVPDGFLSELTQQLAQATGKPPQYIAVHVVPDQLMAFGGSSEPCALCSLHSIGKIGGAQNRSYSKLLCGLLAEAAAISPDRVYINYYDMNAANVGWNNSTFA
notes: also called RLR mutant; MIF R87A-L88A-R89A triple mutant; source: E. coli BL21/DE3 (pET11b), purified (Q sepharose anion exchange, Superdex 75 SEC)
chemotactic activity on JVM-3 B cells ([2]; RLR mutant 8 nM, 16 nM, 32 nM, p = ns, 24 h, Transwell 5 µm): did not exhibit a significant chemotactic activity | chemotactic activity on JVM-3 lymphocytes ([2]; RLR mutant 16 nM (optimal concentration of WT-MIF)): failed to show any chemotactic activity | chemotactic activity on JVM-3 lymphocytes ([2]; RLR mutant 32 nM, effect did not reach statistical significance): slight increase in activity | chemotactic effect compared with another chemoattractant [2]: Impaired chemotactic effect | chemotactic effect compared with another chemoattractant ([2]; listed as MIF R87A-L88A-R89A triple mutant): reduced cell migratory response | chemotactic effect compared with another chemoattractant ([2]; listed as RLR-mutant of MIF): reduction | increase of random coil content vs WT-MIF ([3]; CD deconvolution by Dichroweb): approximately 20% | reduction of α-helix content vs WT-MIF ([3]; CD deconvolution by Dichroweb): 12% | reduction of β-strand percentage vs WT-MIF ([3]; CD deconvolution by Dichroweb): 7% | decrease in ordered secondary structural content vs WT-MIF ([3]; CD spectroscopy): 20% | aggregation-tendency [3]: neither protein showed an aggregation-tendency | approximate molecular size of SEC peak, first species ([5]; suggests dimers): ~23 kDa | approximate molecular size of SEC peak, second species ([5]; suggests trimers): ~38 kDa | stoichiometry N [6]: 2 and 3
